Where a chain is given by its changes, count along the chain named. In names and notes the source's numbering stands.
Tests used:
[1] = target: T1, human NGF (Homo sapiens, UniProt P01138); assay: Mouse E13.5 trigeminal neuron survival assay, human NGF; assay type: cell-based; settings: 1.5 or 15 pM human NGF
Description: (§1) The ability of Fab E3 or full antibody E3 to block NGF activity was evaluated by measurement of the capacity of the antibody to inhibit NGF-dependent survival of mouse E13.5 trigeminal neurons in vitro. The trigeminal ganglion is comprised of cutaneous sensory neurons that innervate the facial region. The survival of mouse E13.5 trigeminal neurons is a sensitive assay to evaluate the NGF-blocking activity of anti-NGF antagonist antibodies because NGF is required to support survival of these neurons. For example, at saturating concentrations of NGF, the survival is close to 100% by 48 hours in culture. By contrast, less than 5% of the neurons survive by 48 hours in absence of NGF.
(§2) The survival assay was conducted as follows: time-mated pregnant Swiss Webster female mice were euthanized by CO2 inhalation. The uterine horns were removed and the embryos at embryonic stage E13.5 were extracted and decapitated. The trigeminal ganglia were dissected using electrolytically sharpened tungsten needles. The ganglia were then trypsinized, mechanically dissociated and plated at a density of 200-300 cells per well in defined, serum-free medium in 96-well plates coated with poly-L-ornithine and laminin.
After 48 hours in culture, the cells were subjected to an automated immunocytochemistry protocol performed on a Biomek FX liquid handling workstation (Beckman Coulter) as follows: fixation using 4% formaldehyde, 5% sucrose, and PBS; permeabilization using 0.3% Triton X-100 in PBS); blocking of unspecific binding sites using 5% normal goat serum, 0.11% BSA in PBS; and sequential incubation with a primary and secondary antibodies to detect neurons. The primary antibody was rabbit polyclonal antibody against the protein gene product […] (PGP9.5, Chemicon), an established neuronal phenotypic marker. The secondary antibody was Alexa Fluor 488 goat anti-rabbit (Molecular Probes), together with the nuclear dye Hoechst 33342 (Molecular Probes) to label the nuclei of all the cells present in the culture. […]

[2] = target: T1, human NGF; assay: BIAcore screening assay of Fab library clones (koff); assay type: binding
Description: Small scale expression in 96 wells plates was optimized for screening Fab libraries. Starting from E. coli transformed with a Fab library, colonies were picked to inoculate both a master plate (agar LB+Ampicillin (50 μg/ml)+2% Glucose) and a working plate (2 ml/well, 96 well/plate containing 1.5 mL of LB+Ampicillin (50 μg/ml)+2% Glucose). Both plates were grown at 30° C. for 8-12 hours. The master plate was stored at 4° C. and the cells from the working plate were pelleted at 5000 rpm and resuspended with 1 mL of LB+Ampicillin (50 μg/ml)+1 mM IPTG to induce expression of Fabs. Cells were harvested by centrifugation after 5 h expression time at 30° C., then resuspended in 500 μL of buffer HBS-EP ([…] buffer pH 7.4, 150 mM NaCl, 0.005% P20, 3 mM EDTA). Lysis of HBS-EP resuspended cells was attained by one cycle of freezing (−80° C.) then thawing at 37° C. Cell lysates were centrifuged at 5000 rpm for 30 min to separate cell debris from supernatants containing Fabs. The supernatants were then injected into the BIAcore plasmon resonance apparatus to obtain affinity information for each Fab. Clones expressing Fabs were rescued from the master plate to sequence the DNA and for large scale Fab production and detailed characterization as described below.
(§3) Affinities of anti-NGF Fabs and monoclonal antibodies were determined using the BIAcore300™ surface plasmon resonance (SPR) system (BIAcore, INC, Piscaway N.J.). CM5 chips were activated with N-ethyl-N′-(3-dimethylaminopropyl)-carbodimide hydrochloride (EDC) and N-hydroxysuccinimide (NHS) according to the supplier's instructions. Human NGF was diluted into 10 mM sodium acetate pH 4.0 and injected over the activated chip at a concentration of 0.005 mg/mL. Using variable flow time across the individual chip channels, two ranges of antigen density were achieved: 100-200 response units (RU) for detailed kinetic studies and 500-600 RU for screening assays. The chip was blocked with ethanolamine. […] HBS-EP buffer (0.01M HEPES, pH 7.4, 0.15 NaCl, 3 mM EDTA, 0.005% Surfactant […]) was used as running buffer for all the BIAcore assays.
A screening BIAcore assay was optimized to determine the affinity of Fab clones from libraries. Supernatants of small culture lysates were injected at 50 μl/min for 2 min. Dissociation times of 10 to 15 minutes were used for determination of a single exponential dissociation rate (koff) using BIAevaluation software. […] Clones showing improved (slower) koff values were expressed at large scale and full kinetic parameters, kon and koff, were determined on purified protein. The assay was capable of detecting differences in affinity that were approximately 2-fold or larger.
For affinity screening experiments, each library was further paired with the corresponding CDR-grafted light or heavy chain (for example, the H1/H2 library was paired with CDR-grafted light chain), the antibody was expressed, and affinity to human NGF of the individual clones was screened using the BIACORE surface plasmon resonance (SPR) system (BIAcore, Inc. Piscataway, N.J.) according to the manufacturer's instructions and as described above. koff, kon and KD were determined. Antibody clones were ranked based on koff rates, since generally most variation in affinity is seen in koff rates, and further because koff rates are independent of antibody concentration.
20-80 clones from each small library were screened using BIAcore analysis as described herein. Samples were simultaneously analyzed by BIAcore for binding affinity to NGF in one channel of the BIAcore chip and for presence of Fab by binding to a penta-histag antibody in another channel of the sensor chip, to detect the his tag at the C terminus of the heavy chain. Clones that expressed protein were classified as having the same affinity, worse affinity, better affinity or no binding, using koff to classify: The results of this analysis are shown in Table 5.

[3] = target: rat NGF (Rattus norvegicus, UniProt P25427); assay: Mouse E13.5 trigeminal neuron survival assay, rat NGF; assay type: cell-based; settings: 1.5 or 15 pM rat NGF
Sequence of rat NGF (P25427 122-241): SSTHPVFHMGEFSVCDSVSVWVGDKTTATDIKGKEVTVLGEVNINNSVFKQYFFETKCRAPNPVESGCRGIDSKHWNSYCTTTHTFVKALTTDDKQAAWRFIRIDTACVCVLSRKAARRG
Description: as §1
as §2, with “laminin. […]” for “laminin.”

[4] = target: T1, human NGF; assay: BIAcore affinity determination assay (kon, koff, KD of purified Fabs); assay type: binding; settings: Fab on immobilized human NGF
Description: as §3
Serial dilutions (0.1-10× estimated KD) of purified Fab samples were injected for 1 min at 100 μL/min and dissociation times of up to 2 h were allowed. The concentrations of the Fab proteins were determined by ELISA and/or SDS-PAGE electrophoresis using as a standard a Fab of known concentration (as determined by amino acid analysis). Kinetic association rates (kon) and dissociation rates (koff) were obtained simultaneously by fitting the data to a 1:1 Langmuir binding model (Karlsson, R. Roos, H. Fagerstam, L. Petersson, B. (1994). Methods Enzymology 6. 99-110) using the BIAevaluation program. Equilibrium dissociation constant (KD) values were calculated as koff/kon.
The binding affinities to human NGF of Fabs E3 and 3C were measured using BIAcore analysis according to the manufacturer's instructions and as described above, except that 100 RU NGF was used on chip to prevent a rebinding effect. Briefly, several concentrations of antibodies (Fabs) were injected for 2 minutes onto a CM5 chip with 100 RU of immobilized human NGF on it, and permitted to dissociate for 1800 seconds. Mouse antibody 911 (Fab) was analyzed as a control. Data was analyzed using BIAevaluation software following the manufacturer's instructions. E3 bound human NGF with a KD of approximately 0.07 nM (and with a kon of about 6.0e5 M-1s-1, and a koff of about 4.2e-5s-1).

[5] = Table 8: CDR L3 H3 combination mutations, H19-L129 template (H1H2L1L2 matured)

T1 sequence (P01138 122-241): as the sequence (P25427 122-241) above, with T3S, V6I, M9R, T37M, A60D, E65D, T92M, D94G, A117V, G120A counted along it

B1: 3C: H19-L129 with CDR-L3 S91E, K92R and CDR-H3 Y101W, G103A (antibody, V domains shown)
VH: QVQLQESGPGLVKPSETLSLTCTVSGFSLIGYDLNWIRQPPGKGLEWIGIIWGDGTTDYNSAVKSRVTISKDTSKNQFSLKLSSVTAADTAVYYCARGGYWYATSYYFDYWGQGTLVTVS
VL: DIQMTQSPSSLSASVGDRVTITCRASQSISNNLNWYQQKPGKAPKLLIYYTSRFHSGVPSRFSGSGSGTDFTFTISSLQPEDIATYYCQQERTLPYTFGQGTKLEIKRT
B1 was tested, and the “blocking of human NGF-dependent trigeminal neuron survival” value [1] was “strongly blocked”, the koff [2, 5] was 1.4e-05 s⁻¹ and the “blocking of rat NGF-dependent trigeminal neuron survival” value [3] was “strongly blocked”. For the same molecule, the koff [4] was “about 1.4E-5 s^−1”.

B2: H19-L129: combined clone with matured CDRs H1, H2, L1, L2 and grafted H3 and L3 (antibody, V domains shown)
VH: B1 VH with W101Y, A103G
VL: B1 VL with E91S, R92K
With B2 the “blocking of human NGF-dependent trigeminal neuron survival” value [1] was “strongly blocked”, the koff ([2]; Table 4: combination clone, mutations in CDRs H1, H2, L1, L2) was 0.00011 s⁻¹ and the koff [2, 5] was 1.1 e-4 s-1. For the same molecule, the “blocking of rat NGF-dependent trigeminal neuron survival” value [3] was “strongly blocked”.
